Measured values published in US20220281986A1 (RESEARCH FOUNDATION FOR THE STATE UNIVERSITY OF NEW YORK, published 2022).

Target: T1, peptide corresponding to the N-terminal domain of CXCR4 (biotinylated (position not given))
T1 construct: Synthetic peptide (ABclonal), biotinylated and captured on neutravidin-coated plates; also called CXCR4 N-terminal domain; NTD of CXCR4
T1 peptide: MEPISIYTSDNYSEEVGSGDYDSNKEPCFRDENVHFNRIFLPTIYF
Experiment: ELISA; serially diluted scFv on biotinylated CXCR4 N-terminal peptide captured on neutravidin
Experimental: The binding affinity of the anti-CXCR4 scFv was assessed with an ELISA. Purified anti-CXCR4 scFvs were serially diluted and added to a 96-well plate that was first coated with neutravidin and then coated with the biotinylated CXCR4 N-terminal peptide domain. Anti-FLAG-HRP conjugate (Sigma Aldrich) served as the primary antibody. 100 μL of Ultra-TMB substrate (Thermo Fisher Scientific) was added to quantify the amount of bound anti-CXCR4 scFv. The reaction was then quenched with 12.5 M H₂SO₄ aqueous solution. Readings were taken using a plate reader with the wavelength set to 450 nm.

B1: CXCR4-scFv (scFv)
scFv: QSVLTQPPSASGTPGQRVTISCSGSSSNIGSNYVYWYQQLPGTAPKLLIYRNNQRPSGVPDRFSGSKSGTSASLAISGLRSEDEGDYYCATWDDSLSGVVFGGGTKLTVLGEGKSSGSGSESKASQVTLKESGAEVKKPGASVKVSCKASGYTFTNFYIHWVRRAPGQGLEWMGIINPSDGRTTYAQKFQGRVTMTRDTSTSTLYMELTSLRSEDTAVYYCGRGGHYSNYFGQPSTWGQGTLVTVSVEASHHHHHH
modifications: labeled with DyLight 650 (NHS ester) in the cell binding and imaging assays; unlabeled in the ELISA
notes: also called scFv#c; anti-CXCR4 scFv
Kd: 114 nM
